Where two headings read alike, the source gives them in different places. No end group written: not given here. *: point of attachment. FITC = O=C1OC2(c3ccc(O)cc3Oc3cc(O)ccc32)c2ccc(NC(=S)*)cc21
Legend:
Assay in all cases: fluorescence polarisation
[1] = target: T1, Paramecium calmodulin N-domain fragment (CaM_(1-80)) (Paramecium, UniProt P07463 2-81)
[2] = target: T2, Paramecium calmodulin C-domain fragment (CaM_(76-148)) (Paramecium, UniProt P07463 77-149)
[3] = target: T3, Paramecium calmodulin, full-length (CaM_(1-148)) (Paramecium, UniProt P07463 1-149)
[4] = target: T1, Paramecium calmodulin N-domain fragment …; remark: listed apart in the source
[5] = target: T2, Paramecium calmodulin C-domain fragment …; remark: listed apart in the source
[6] = target: T3, Paramecium calmodulin, full-length …; remark: listed apart in the source

{FITC}-ARKEIIRNKIRAIGKMARVFSVLR
Kd [1]: 600 µM | Kd [2]: 44.1 µM | Kd [3]: 25 µM | Kd [4]: 7.06 µM | Kd [5]: 0.96 µM | Kd [6]: ≤ 0.001 µM

Source: publication PMC3057930 (Proteins, 2010)
